{"source": "patent US20180371066A1", "about": "(C2N DIAGNOSTICS, published 2018)", "binders": {"B1": {"name": "VH1/VK2 humanized anti-tau antibody (C2N-8E12) (antibody, human IgG4 S228P, kappa, V domains shown)", "VH": "EVKVVESGGGLVQPGGSMKLSCVVSGFTFSNYWVNWVRQAPGKGLEWVAQIRLKSDNYATHYEESVKGRFTISRDDSKSSVYLQMNNLRAEDSGIYYCTNWEDYWGQGTTVTVSS", "VL": "DIVLTQSPDSLAVSLGERATISCRASQSVSTSRYSYIHWYQQKPGQPPKLLIKYASNLESGVPSRFSGSGSGTDFTLNIHPLEPEDFATYYCHHSWEIPLTFGQGTKLEIKR", "notes": "Humanized recombinant IgG4 with S241P hinge mutation, human kappa light chain; also called C2N-8EI2"}}, "key": {"human tau [1]": {"biological_target": "T1, human tau (human, UniProt P10636 2-60)", "T1 construct": "also called soluble human tau; human tau protein", "T1 sequence (P10636 2-60 limits assumed)": "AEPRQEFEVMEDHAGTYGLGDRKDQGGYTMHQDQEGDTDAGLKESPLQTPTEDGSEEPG", "assay": "competition ELISA on plate-coated human tau against biotinylated HJ8.5; IC50 normalised to chimeric HJ8.5; column C2N Run 1"}, "human tau [2]": {"biological_target": "T1, human tau", "assay": "competition ELISA on plate-coated human tau against biotinylated HJ8.5; IC50 normalised to chimeric HJ8.5; column External"}, "PEP_2875804": {"biological_target": "T2, PEP_2875804", "T2 peptide": "AGTYGLGDRKDQGGY", "assay": "peptide array of 15-mers of human tau probed with the antibody; label LIN"}, "PEP_2875820": {"biological_target": "T3, PEP_2875820", "T3 peptide": "RKDQGGYTMHQDQEG", "assay": "peptide array of 15-mers of human tau probed with the antibody; label LIN"}, "PEP_2875826": {"biological_target": "T4, PEP_2875826", "T4 peptide": "QGGYTMHQDQEGDTD", "assay": "peptide array of 15-mers of human tau probed with the antibody; label LIN"}, "PEP_2875816": {"biological_target": "T5, PEP_2875816", "T5 peptide": "GDRKDQGGYTMHQDQ", "assay": "peptide array of 15-mers of human tau probed with the antibody; label LIN"}, "PEP_2875818": {"biological_target": "T6, PEP_2875818", "T6 peptide": "DRKDQGGYTMHQDQE", "assay": "peptide array of 15-mers of human tau probed with the antibody; label LIN"}, "PEP_2875822": {"biological_target": "T7, PEP_2875822", "T7 peptide": "KDQGGYTMHQDQEGD", "assay": "peptide array of 15-mers of human tau probed with the antibody; label LIN"}, "PEP_2875812": {"biological_target": "T8, PEP_2875812", "T8 peptide": "GLGDRKDQGGYTMHQ", "assay": "peptide array of 15-mers of human tau probed with the antibody; label LIN"}}, "data": [{"binder": "B1", "values": [{"measurement": "IC50 (Relative to Chimera)", "setting": "human tau [1]", "value": "1.34 relative to Chimera"}, {"measurement": "IC50 (Relative to Chimera)", "setting": "human tau [2]", "value": "0.78 relative to Chimera"}, {"measurement": "Binding Signal", "setting": "PEP_2875804", "value": 1290}, {"measurement": "Binding Signal", "setting": "PEP_2875820", "value": 2780}, {"measurement": "Binding Signal", "setting": "PEP_2875826", "value": 789}, {"measurement": "Binding Signal", "setting": "PEP_2875816", "value": 2700}, {"measurement": "Binding Signal", "setting": "PEP_2875818", "value": 2790}, {"measurement": "Binding Signal", "setting": "PEP_2875822", "value": 2680}, {"measurement": "Binding Signal", "setting": "PEP_2875812", "value": 2730}]}]}
